Experimental data from US7326418B2, “Identification of novel factors that block programmed cell death or apoptosis by targeting JNK” (University of Chicago, priority 2001, dated 2008).
“Also recorded” adds a separate entry of the source.

T1: JNKK2/MKK7 (Homo sapiens, UniProt O14733, Q133P/Q94H)
T1 construct: expressed in transfected cells; host or cells: HEK-293, TNFα-treated or untreated; anti-FLAG immunoprecipitate
T1 sequence (O14733 1-401 Q94H/Q133P limits assumed): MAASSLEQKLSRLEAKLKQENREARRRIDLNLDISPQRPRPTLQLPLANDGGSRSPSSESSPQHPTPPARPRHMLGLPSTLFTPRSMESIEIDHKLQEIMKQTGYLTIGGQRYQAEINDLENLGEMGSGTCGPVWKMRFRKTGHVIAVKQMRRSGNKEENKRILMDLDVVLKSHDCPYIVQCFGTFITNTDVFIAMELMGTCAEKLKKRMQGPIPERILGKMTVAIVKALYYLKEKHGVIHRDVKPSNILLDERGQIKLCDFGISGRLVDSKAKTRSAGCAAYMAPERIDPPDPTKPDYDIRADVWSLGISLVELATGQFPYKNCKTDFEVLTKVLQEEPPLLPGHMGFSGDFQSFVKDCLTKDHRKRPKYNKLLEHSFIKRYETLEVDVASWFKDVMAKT


Target: T1, JNKK2/MKK7
Experiment: Kinase assay of immunoprecipitated FLAG-JNKK2/MKK7 (GST-JNK1 substrate) pre-incubated with recombinant Gadd45β proteins or peptides
Format: biochemical
Settings: for inhibition of JNKK2/MKK7 activity (GST-JNK1 phosphorylation): FLAG-JNKK2 from 293 cells, 10 min pre-incubation with increasing concentrations of recombinant protein
Procedure: Next, the functional consequences, in vitro, of the physical interactions of Gadd45β with kinases in the JNK pathway were assessed. Murine and human, full-length Gadd45J3 proteins were purified from E. coli as GST-Gadd45β and His6-tagged Gadd45β (His6 disclosed as SEQ ID NO: 46), respectively, according to standard procedures. Prior to employing these proteins in in vitro assays, purity of all recombinant polypeptides was assured by >98%, by performing Coomassie blue staining of SDS polyacrylamide gels. Then, the ability of these proteins, as well as of control GST and His6-EF3 (His6 disclosed as SEQ ID NO: 46)proteins, to inhibit kinases in the JNK pathways was monitored in vitro. FLAG-tagged JNKK2, JNKK1, MKK3, and ASK1 were immunoprecipitated from transiently transfected 293 cells using anti-FLAG antibodies and pre-incubated for 10 minutes with increasing concentrations of recombinant proteins, prior to the addition of specific kinase substrates (i.e. GST-JNK1 with JNKK1 and JNKK2; GST-p38[…] with MKK3; GST-JNNK1 or GST-JNKK2 with ASK1). […] These findings indicate that, upon binding to Gadd45β, JNKK2 is effectively inactivated.
A question was whether Gadd45β inhibited active MKK7, in vitro. FLAG-MKK7 was immunoprecipitated from TNFα-treated or untreated 293 cells, and kinase assays were performed in the presence of purified His6-Gadd45β (His6 disclosed as SEQ ID NO: 46), GST-Gadd45β, or control proteins (FIG. 28d; see also FIG. 28g). […] Consistent with the in vivo findings (FIG. 27), the inhibitory activity of Gadd45β was specific. […] Indeed, the effects of Gadd45β on MKK7 phosphorylation by TNFα may be due inhibition of the MKK7 ability to auto-phoshorylate and/or to serve as substrate for upstream kinases. Altogether, the findings identify MKK7 as a target of Gadd45β, and of NF-[…]B, in the JNK cascade. Of interest, MKK7 is a selective activator of JNK, and its ablation abolishes JNK activation by TNFα. Thus, blockade of MKK7 is sufficient on its own to explain the effects of Gadd45β on JNK signaling—i.e. its specific and near-complete suppression of this signaling.
Active MKK7 was immunoprecipitated from TNFα-activated 293 cells and MKK7 kinase assays were performed using GST-JNK1 substrates and pure recombinant Gadd45β polypeptides (FIG. 37B; a schematic diagram representing the Gadd45βpolypeptides used is shown in FIG. 37A). […] MKK7 kinase assays were performed as in FIG. 37B, except that pure synthetic Gadd45, peptides (whose sequences are shown in FIG. 37C) were used instead of pure recombinant Gadd45β proteins. The amino acid region between amino acids 58 and 77 of Gadd45βis used for the Gadd45β-mediated inhibition of MKK7. […]

| JNKK2 auto-phosphorylation (in vitro) | Molecule | inhibition of JNKK2/MKK7 activity (GST-JNK1 phosphorylation) |
| --- | --- | --- |
| inhibited | Gadd45β: purified recombinant His6-tagged Gadd45β protein; also used generically for the recombinant Gadd45β proteins (protein, UniProt O75293 1-160, looked up, His6 tag, purified recombinant His6-tagged Gadd45β protein; also used generically for the recombinant Gadd45β proteins) Growth arrest and DNA …: MTLEELVACDNAAQKMQTVTAAVEELLVAAQRQDRLTVGVYESAKLMNVDPDSVVLCLLAIDEEEEDDIALQIHFTLIQSFCCDNDINIVRVSGMQRLAQLLGEPAETQGTTEARDLHCLLVTNPHTDAWKSHGLVEVASYCEESRGNNQWVPYISLQER |  |
|  | His6-Gadd45β: human full-length Gadd45β purified from E. coli as His6-tagged protein (protein, UniProt O75293 1-160, looked up, full-length His6 tag, human full-length Gadd45β purified from E. coli as His6-tagged protein) MTLEELVACDNAAQKMQTVTAAVEELLVAAQRQDRLTVGVYESAKLMNVDPDSVVLCLLAIDEEEEDDIALQIHFTLIQSFCCDNDINIVRVSGMQRLAQLLGEPAETQGTTEARDLHCLLVTNPHTDAWKSHGLVEVASYCEESRGNNQWVPYISLQER | blocked GST-JNK1 phosphorylation by MKK7, in a dose-dependent manner; also recorded: effectively suppressed |
|  | GST-Gadd45β: full-length murine Gadd45β directly fused to GST, purified from E. coli (protein, left off: a dimerising Fc or GST, full-length murine Gadd45β directly fused to GST, purified from E. coli) MTLEELVASDNAVQKMQAVTAAVEQLLVAAQRQDRLTVGVYEAAKLMNVDPDSVVLCLLAIDEEEEDDIALQIHFTLIQSFCCDNDIDIVRVSGMQRLAQLLGEPAETLGTTEARDLHCLLVTNCHTDSWKSQGLVEVASYCEESRGNNQWVPYISLEER | blocked GST-JNK1 phosphorylation by MKK7, in a dose-dependent manner; also recorded: effectively suppressed |
